In patent US7008623 (GlaxoSmithKline, dated 2006):

B1: chimaeric anti-CD23 antibody (murine C11 variable regions, human gamma 1 and human kappa constant regions) (antibody, human IgG1, V domains shown)
VH: EVKLEESGGGLVQPGGSMKLSCVASGFTFSGYWMSWVRQSPEKGLEWVAEIRLKSDNYATHYAESVKGKFTISRDDSKSRLYLQMNSLRAEDSGVYYCTDFIDWGQGTL
VL: DIVITQDELSNPVTSGESVSISCRSSKSLLYKDGKTYLNWFLQRPGQSPQLLMYLMSTRASGVSDRFSGSGSGTDFTLEISRVKAEDVGVYYCQQLVEYPFTFGSGTKLEIKR
notes: The VH is fused to the human IgG1 (gamma 1) constant region of Reichmann et al 1988 and the VL to the human kappa constant region of Reichmann et al 1988; It was transiently expressed in COS cells and tested as supernatant; The variable regions were amplified with signal-peptide primers, so the entries may include a leader, and no cleavage site is stated; also called chimeric CD23; chimaeric CD23 …
B2: humanised anti-CD23 antibody (IgG1 with mutations 248 Leu to Ala and 250 Gly to Ala, human kappa) (antibody, V domains shown)
VH: EVQLVESGGGLVKPGGSLRLSCAASGFTFSGYWMSWVRQAPGKGLEWVAEIRLKSDNYATHYAESVKGKFTISRDDSKSRLYLQMNSLKTEDTAVYYCTDFIDWGQGTLVTVSS
VL: DIVMTQSPLSLPVTPGEPASISCRSSKSLLYKDGKTYLNWYLQKPGQSPQLLIYLMSTRASGVPDRFSGSGSGTDFTLKISRVEAEDVGVYYCQQLVEYPFTFGQGTKVEIKR
notes: The light chain constant region is human kappa; also called humanised CD23 IgG1m

Assays:
soluble CD23 (sCD23) [1] = target: T1, soluble CD23 (sCD23) (human, UniProt P06734 150-321, limits assumed); test: ELISA, plate coated with sCD23, OD against antibody concentration
T1 sequence (looked up): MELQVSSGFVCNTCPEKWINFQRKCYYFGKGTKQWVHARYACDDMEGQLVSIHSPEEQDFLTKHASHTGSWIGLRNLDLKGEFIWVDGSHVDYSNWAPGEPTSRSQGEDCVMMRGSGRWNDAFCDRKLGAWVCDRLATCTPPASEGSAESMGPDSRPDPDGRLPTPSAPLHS
Experimental: (§1) The chimaeric antibody bound sCD23 in an ELISA assay. For the ELISA assay to determine sCD23 binding, EIA/RIA plates (Costar) were coated with 100 µl/well of 2 µg/ml sCD23 in 35 mM NaHCO_3, 15 mM Na_2CO_3, pH 9.3 overnight at 4° C. Plates were washed three times with 150 mM NaCl, 50 mM Trizma base, 0.1% (v/v) Tween-20, pH 7.4 (TBS/Tween), blocked for 1–2 hours at 22° C. with 100 µl/well of 2% bovine serum albumin in TBS/Tween, and washed three times with TBS/Tween.
(§2) The concentration of chimeric and humanised anti-CD23 antibody required for half-maximal binding to sCD23 was assayed using the sCD23 ELISA already described. Absorbance at 405 nm was plotted versus a range of concentrations of antibody to generate a sigmoidal curve with a "goodness of fit" or correlation coefficient of 1. The absorbance was read using a Molecular Devices plate reader (Menlo Park, Calif., USA) and Softmax (Molecular Devices Corp) software to calculate best fit by a log-logit algorithm then display the curve, equation parameters and correlation coefficient. A discussion of curve fitting appears in "Data Analysis and Quality Control of Assays: A Practical Primer", by R P Channing Rogers in Practical Immuno Assay, editor Wilfrid R Butt; published by Marcel Dekker, Inc., New York 1984. […] The value for x in ng/ml was calculated for the following equation: […]

soluble CD23 (sCD23) [2] = target: T1, soluble CD23 (sCD23); test: ELISA, sCD23 coated on plate, antibody concentration for half-maximal binding (log-logit fit)
Experimental: as §1, §2

[3] = target: T2, purified recombinant CD23 (human, UniProt P06734 150-321, limits assumed); test: Biacore SPR, recombinant CD23 immobilised on CM5, antibody in solution; upper end of the range over 6 batches
T2 construct: also called CD23 antigen; immobilised CD23
T2 sequence (looked up): T1 sequence (looked up)
Experimental: (§3) The association rate, dissociation rate and the dissociation rate constant for the binding of humanised anti-CD23 to the CD23 antigen was evaluated on the Biacore Biosensor. Briefly, purified recombinant CD23 was immobilised onto a CM5 sensor surface. Carboxyl groups on the dextran surface were activated by 1-ethyl-3(3-dimethylaminopropyl) carbidimide (EDCO/N-hydroxysuccimimide (NHS). Following activation, recombinant CD23 was passed over the surface to initiate immobilisation. Ethanolamine was then added to quench residual active groups. Humanised anti-CD23 diluted in HBS buffer was passed over the sensor surface. Binding of anti-CD23 to immobilised CD23 was monitored in real time for estimation of the association rate (M^-1 seq^-1). Dissociation of the CD23 and the anti-CD23 complex in buffer was also monitored for estimation of the dissociation rate (sec^-1). The dissociation constant (nM) was calculated from the dissociation and association rate. […] The affinity constant was determined to be approximately 9 ×10^10 Ka mol^-1.

[4] = target: T2, purified recombinant CD23; test: Biacore SPR, recombinant CD23 immobilised on CM5, antibody in solution; lower end of the range over 6 batches
Experimental: as §3

[5] = target: T2, purified recombinant CD23; test: Biacore SPR, recombinant CD23 immobilised on CM5, calculated from the rates; lower end of the range over 6 batches
Experimental: as §3

[6] = target: T2, purified recombinant CD23; test: Biacore SPR, recombinant CD23 immobilised on CM5; affinity (association) constant
Experimental: as §3

Binder | EC50 (read off the curve) (soluble CD23 (sCD23) [1]) | EC50 (soluble CD23 (sCD23) [2]) | koff [3] | koff [4] | kon [4] | Kd [5] | Ka [6]
B1 | ~60 ng/mL | 0.0163 µg/mL |  |  |  |  | 
B2 | ~30 ng/mL | 0.015 µg/mL | 2e-05 s⁻¹ | 1e-05 s⁻¹ | 1.5e+06 to 1.85e+06 M⁻¹ s⁻¹ | 0.008 to 0.012 nM | ~9e+10 M⁻¹
